Data: paper PMC4400361, “Oligomerization of the Polycystin-2 C-terminal Tail and Effects on Its Ca^2+-binding Properties*” (The Journal of Biological Chemistry, 2015)

Columns and labels:
[1] = molecular target: the molecule itself; experiment: SEC-MALS; Superdex 200 10/30 GL, SEC-UV/LS/RI; Ca2+-bound holo state, 20 mM CaCl2 in the buffer; 20 mM imidazole in the buffer for HPC2 Cterm; three injected amounts for HPC2 Cterm and SUPC2 Ccore
[2] = molecular target: the molecule itself; experiment: SEC-MALS; Superdex 200 10/30 GL, SEC-UV/LS/RI; Ca2+-free apo state, no added CaCl2, 1 mM EDTA; 20 mM imidazole in the buffer for HPC2 Cterm; three injected amounts

B1: human polycystin-2 C-terminal construct, which includes the full-length cytoplasmic tail (HPC2 Cterm) (domain or fragment, UniProt Q13563 704-968, looked up)
chain: IRKGYHKALVKLKLKKNTVDDISESLRQGGGKLNFDELRQDLKGKGHTDAEIEAIFTKYDQDGDQELTEHEHQQMRDDLEKEREDLDLDHSSLPRPMSSRSFPRSLDDSEEDDDEDSGHSSRRRGSISSGVSYEEFQVLVRRVDRMEHSIGSIVSKIDAVIVKLEIMERAKLKRREVLGRLLDGVAEDERLGRDSEIHREQMERLVREELERWESDDAASQISHGLGTPVGLNGQPRPRSSRPSSSQSTEGMEGAGGNGSSNVHV
notes: polycystin-2 (PC2), human, residues I704-V968, numbered on full-length human PC2; Printed monomer mass 32.2 kDa; also called C-terminal cytoplasmic tail of human PC2; HPC Cterm
B1 was tested, and the “stoichiometry N” value [1] was 3 and the “stoichiometry N” value [2] was 3.
